These results are taken from paper PMC7188994.

In general, stoichiometry N refers to the number of molecules, sites or subunits per partner or assembly.

The experiment has as its target SspA C314S mutant from Vibrio cyclitrophicus FF75 (Vibrio cyclitrophicus FF75). Kind of experiment: crystal structure; SspA C314S with cysteine substrate and PLP; hanging drop at 14°C, 1.8 M ammonium citrate pH 7.0; space group P6_(3)22, two molecules in each asymmetric unit; 1.80 Å.

Take “SspA C314S mutant from Vibrio cyclitrophicus FF75 (from UniProt A0AAN0N811 1-211) (enzyme)”: the stoichiometry N came out at 2.
